These results are taken from the Immune Epitope Database (IEDB).

By Kd is commonly meant the equilibrium constant for the complex coming apart. A higher Kd goes with weaker binding.

For assay [1], the target named is HLA-A*24:03. Description: IEDB peptide-MHC binding, purified MHC/competitive/fluorescence; filed as Kd, often an IC50 or EC50 that approximates it; ≥ and ≤ were set here for values at or beyond the usual limits of such assays.
The target in assay [2] is HLA-A*02:01. Described as above. Conditions: source organism: Homo sapiens.
For another assay, the target named is HLA-A*02:03. The description is as above. Conditions: source organism: Homo sapiens.
Assay [3] addresses HLA-A*69:01. The assay is described as above. Conditions: source organism: Homo sapiens.
A further assay deals with HLA-A*01:01. Description: IEDB peptide-MHC binding, purified MHC/direct/fluorescence; filed as Kd, often an IC50 or EC50 that approximates it; ≥ and ≤ were set here for values at or beyond the usual limits of such assays.
For assay [4], the target named is HLA-A*02:01. Described as above.
In assay [5] the target is HLA-A*03:01. Described as above.
For assay [6], the target named is HLA-A*11:01. Described as above.
A further assay addresses HLA-A*24:02. The description is as above.
Assay [7] has as its target HLA-A*24:03. Described as above.
Another assay deals with HLA-A*26:01. The assay is described as above.
Assay [8] has as its target HLA-A*31:01. The description is as above.
Assay [9] concerns the target HLA-A*69:01. The assay is described as above.
Assay [10] concerns the target HLA-B*07:02. Described as above.
The target of assay [11] is HLA-B*08:01. Described as above.
The next assay has as its target HLA-B*27:05. Described as above.
A further assay has as its target HLA-B*40:01. The description is as above.
A further assay concerns the target HLA-B*44:02. The description is as above.
For the next assay, the target named is HLA-B*58:01. The assay is described as above.
For the next assay, the target named is HLA-B*15:17. The assay is described as above.
Another assay has as its target HLA-C*15:02. The assay is described as above. Conditions: source organism: Yellow fever virus.
Another assay concerns the target HLA-B*08:02. Described as above. Conditions: source organism: Influenza A virus(A/swine/Shandong/fNY/2003(H9N2)).
The target in assay [12] is HLA-B*15:01. The assay is described as above. Conditions: source organism: Influenza A virus (A/goose/Guangxi/1097/2004(H5N1)).
Another assay addresses HLA-B*18:01. Described as above.
The target in the next assay is HLA-B*46:01. Described as above.
Assay [13] deals with HLA-A*31:01. Description: IEDB peptide-MHC binding, purified MHC/competitive/fluorescence; filed as Kd, often an IC50 or EC50 that approximates it; ≥ and ≤ were set here for values at or beyond the usual limits of such assays. Conditions: source organism: Influenza A virus H3N2.
Assay [14] addresses HLA-A*03:01. The assay is described as above. Conditions: source organism: Vaccinia virus WR.
Assay [15] has as its target HLA-B*07:02. The description is as above. As to conditions: source organism: Vaccinia virus WR.
The target in assay [16] is HLA-B*08:01. The description is as above.
The target in the next assay is HLA-C*12:03. In words: IEDB peptide-MHC binding, purified MHC/direct/fluorescence; filed as Kd, often an IC50 or EC50 that approximates it; ≥ and ≤ were set here for values at or beyond the usual limits of such assays. Conditions: source organism: Foot-and-mouth disease virus C1.
The target of another assay is HLA-B*48:01. Described as above. As to conditions: source organism: Bacillus anthracis.
A further assay deals with HLA-B*57:01. The assay is described as above. Conditions: source organism: Bacillus anthracis.
For assay [17], the target named is HLA-A*11:01. In words: IEDB peptide-MHC binding, purified MHC/competitive/fluorescence; filed as Kd, often an IC50 or EC50 that approximates it; ≥ and ≤ were set here for values at or beyond the usual limits of such assays. As to conditions: source organism: Bacillus anthracis str. A0389.
For assay [18], the target named is HLA-B*15:01. The assay is described as above. As to conditions: source organism: Bacillus anthracis str. A0389.
Setting [19] is: source organism: Influenza A virus (A/swine/Hong Kong/5190/99(H3N2)).
[20] abbreviates: source organism: Influenza A virus (A/goose/Guangxi/1097/2004(H5N1)).
The mark [21] stands for this setting: source organism: Bacillus anthracis.

In the assay with HLA-A*24:03 [1] (source organism: Influenza A virus), CYPYDVPDY yielded a Kd of 0.223 µM.
Turning to FLHSGTAKS, the Kd in the assay with HLA-A*02:01 [2] was 0.0185 µM; with HLA-A*02:03, 0.00125 µM; with HLA-A*69:01 [3] it was ≥ 20 µM.
Take GYMFESKSM: the Kd was ≥ 20 µM with HLA-A*01:01 (setting [19]); ≥ 20 µM with HLA-A*02:01 [4] (setting [19]); ≥ 20 µM in the assay with HLA-A*03:01 [5] (setting [19]); ≥ 20 µM with HLA-A*11:01 [6] (setting [19]); ≥ 20 µM in the assay with HLA-A*24:02 (setting [19]); 0.0677 µM in the assay with HLA-A*24:03 [7] (setting [19]). For the same sequence, the Kd with HLA-A*26:01 (source organism: Influenza A virus(A/swine/Henan/5/2004(H9N2))), with HLA-A*31:01 [8] (setting [19]), in the assay with HLA-A*69:01 [9] (setting [19]), in the assay with HLA-B*07:02 [10] (setting [19]), with HLA-B*08:01 [11] (setting [19]) and with HLA-B*27:05 (setting [19]) was ≥ 20 µM throughout. Besides, the Kd in the assay with HLA-B*40:01 (setting [19]), with HLA-B*44:02 (setting [19]) and in the assay with HLA-B*58:01 (setting [19]) was ≥ 20 µM throughout.
With IYQARFMKY, the Kd with HLA-A*69:01 [9] (source organism: Burkholderia mallei) was ≥ 20 µM; with HLA-A*24:03 [1] (source organism: Pseudomonas aeruginosa PACS2) it was 0.0008 µM.
Consider KTNDRKWCF, for which the results for the Kd in the assay with HLA-B*15:17 (source organism: Yellow fever virus 17D) and with HLA-C*15:02 were 0.0266 µM and 0.849 µM, respectively.
KYTSGRQEK: the Kd in the assay with HLA-A*01:01 (setting [20]), in the assay with HLA-A*02:01 [4] (setting [20]), with HLA-A*03:01 [5] (setting [20]), with HLA-A*11:01 [6] (setting [20]), with HLA-A*24:02 (setting [20]) and with HLA-A*24:03 [7] (setting [20]) was ≥ 20 µM throughout. In addition, the dissociation constant (Kd) in the assay with HLA-A*26:01 (source organism: Influenza A virus(A/swine/Shandong/fNY/2003(H9N2))), with HLA-A*69:01 [9] (setting [20]), with HLA-B*07:02 [10] (setting [20]), with HLA-B*08:01 [11] (setting [20]), in the assay with HLA-B*08:02 and with HLA-B*15:01 [12] was ≥ 20 µM throughout. Moreover, the Kd with HLA-B*18:01 (setting [20]), in the assay with HLA-B*27:05 (setting [20]), in the assay with HLA-B*40:01 (setting [20]), with HLA-B*44:02 (setting [20]), with HLA-B*46:01 (setting [20]) and in the assay with HLA-B*58:01 (setting [20]) was ≥ 20 µM in each case. In the assay with HLA-A*31:01 [13], this sequence had a Kd of 0.268 µM.
With LSDLKKTIY, the Kd with HLA-A*01:01 (source organism: Cowpox virus (Brighton Red)) was 0.0035 µM; with HLA-A*03:01 [14], ≥ 20 µM; in the assay with HLA-B*07:02 [15], ≥ 20 µM; with HLA-B*08:01 [16] (source organism: Vaccinia virus WR), ≥ 20 µM.
As to MTAHITVPY, in the assay with HLA-C*12:03, the Kd worked out at 0.045 µM.
QLRENAEDM registered a dissociation constant Kd in the assay with HLA-B*08:01 [16] (source organism: Influenza A virus (A/swine/Hong Kong/81/1978(H3N2))) of 5.3 µM.
As to VTECKLIYY, the Kd with HLA-A*01:01 (setting [21]) was 0.007 µM; in the assay with HLA-A*02:01 [4] (setting [21]), ≥ 20 µM; with HLA-A*03:01 [5] (setting [21]) it was ≥ 20 µM; in the assay with HLA-A*31:01 [8] (setting [21]) it was ≥ 20 µM; with HLA-A*69:01 [9] (setting [21]), ≥ 20 µM; with HLA-B*08:01 [11] (source organism: Bacillus cereus 03BB108), ≥ 20 µM. The Kd was 0.0347 µM in the assay with HLA-B*15:17 (setting [21]); ≥ 20 µM in the assay with HLA-B*18:01 (setting [21]); ≥ 20 µM in the assay with HLA-B*27:05 (setting [21]); ≥ 20 µM with HLA-B*40:01 (setting [21]); ≥ 20 µM in the assay with HLA-B*46:01 (setting [21]); ≥ 20 µM with HLA-B*48:01. Moreover, the Kd was ≥ 20 µM with HLA-B*57:01, ≥ 20 µM with HLA-B*58:01 (setting [21]), 1.26 µM with HLA-A*11:01 [17] and ≥ 20 µM in the assay with HLA-B*15:01 [18].
